Reference: paper PMC6130882 (PLoS Pathogens, 2018)
Each block holds one molecule with its values, some of them ahead of it.

What was measured:
[1] = biological target: synthetic cyclic 42 amino acid V2 peptide of 92TH023 gp120 (HIV-1 92TH023 (subtype A/E)); assay: static cell adhesion assay; RPMI8866 cells on immobilised MAdCAM or cV2 92TH023 in buffer with a high concentration of MgCl2
[2] = biological target: deglycosylated 92TH023 V1/V2 tag scaffold (HIV-1 92TH023 (subtype A/E)); assay: static cell adhesion assay
[3] = biological target: synthetic cyclic 42 amino acid V2 peptide of 92TH023 gp120 (HIV-1 92TH023 (subtype A/E)); assay: SPR
[4] = biological target: recombinant A244 gp120 (subtype A/E, GSID) (HIV-1 A244 (subtype A/E)); assay: SPR
[5] = biological target: recombinant SIVmac766 gp120 (SIVmac766); assay: SPR
[6] = biological target: T1, recombinant soluble α4β7 heterodimer (human, UniProt P13612 35-977; P26010 20-723, disulfide bond joining the acid-base clasp | disulfide bond joining the acid-base clasp); assay: SPR; conditions: both partners purified
T1 construct: also called integrin α4β7; not shown: acid coiled-coil clasp peptide, C-terminal, kept; base coiled-coil clasp peptide, C-terminal, kept

Molecule: integrin α4β7 expressed on the surface of RPMI8866 cells (from UniProt P13612 34-1032; P26010 20-798) (receptor)
fold reduction of adhesion in MgCl2 against MnCl2 [1]: 2.5 fold | fold adhesion against deglycosylated 92TH023 V1/V2 1FD6 [2]: 5 fold

Molecule: recombinant soluble α4β7 heterodimer (from UniProt P13612 35-977; P26010 20-723) (complex)
Kd [3]: 1.15 nM | Kd [4]: 7.14 nM | Kd [5]: 104 nM

Molecule: soluble α4β1 (from UniProt P13612 35-977; P05556 21-728) (complex)
Kd [3]: 9710 nM

Kd [6]: 0.597 nM
B1: MAdCAM-Ig fusion protein (Fc fusion, human, UniProt Q13477 19-317, looked up)
chain: QSLQVKPLQVEPPEPVVAVALGASRQLTCRLACADRGASVQWRGLDTSLGAVQSDTGRSVLTVRNASLSAAGTRVCVGSCGGRTFQHTVQLLVYAFPDQLTVSPAALVPGDPEVACTAHKVTPVDPNALSFSLLVGGQELEGAQALGPEVQEEEEEPQGDEDVLFRVTERWRLPPLGTPVPPALYCQATMRLPGLELSHRQAIPVLHSPTSPEPPDTTSPESPDTTSPESPDTTSQEPPDTTSPEPPDKTSPEPAPQQGSTHTPRSPGSTRTRRPEISQAGPTQGEVIPTGSSKPAGDQ
notes: also called Hu-MAdCAM-Ig; MAdCAM-1
